Laboratory results from publication PMC7730623.

Key:
[1] = target: human ameloblastin full-length isoform I (AMBN ISO I) (human) (UniProt Q9NP70); test: AUC; sedimentation velocity, 23 uM protein, 20 °C, 10 mM Tris-HCl pH 7.4, 100 mM NaCl, no Ca2+; c(s) with bimodal f/f0; average size of heterogeneous oligomers
[2] = target: human ameloblastin full-length isoform I (AMBN ISO I) (human) (UniProt Q9NP70); test: AUC; sedimentation velocity, 23 uM protein, 20 °C, 10 mM Tris-HCl pH 7.4, 100 mM NaCl, with 10 mM CaCl2; c(s) with bimodal f/f0; average size of heterogeneous oligomers
[3] = target: human ameloblastin full-length isoform II (AMBN ISO II) (human) (UniProt Q9NP70); test: AUC; sedimentation velocity, 23 uM protein, 20 °C, 10 mM Tris-HCl pH 7.4, 100 mM NaCl, no Ca2+; c(s) with bimodal f/f0; average size of heterogeneous oligomers
[4] = target: human ameloblastin full-length isoform II (AMBN ISO II) (human) (UniProt Q9NP70); test: AUC; sedimentation velocity, 23 uM protein, 20 °C, 10 mM Tris-HCl pH 7.4, 100 mM NaCl, with 10 mM CaCl2; c(s) with bimodal f/f0; average size of heterogeneous oligomers

stoichiometry N [1] [monomers] | stoichiometry N [2] [monomers] | stoichiometry N [3] [monomers] | stoichiometry N [4] [monomers] | Substance
28 | 33 | – | – | human ameloblastin full-length isoform I (AMBN ISO I) (from UniProt Q9NP70-1 27-447) (natural protein)
– | – | 19 | 20 | human ameloblastin full-length isoform II (AMBN ISO II) (from UniProt Q9NP70-2 27-432) (natural protein)
